Laboratory results taken from PMC3968096.

Legend:
PDGF-A (human) = PDGF-A (human) (UniProt P04085); assay: flow cytometry, yeast display; conditions: 10 mM HEPES pH 7.9, 125 mM NaCl, 25 mM KCl, 1 mM MgCl2; F-EMSA at room temperature for 2 h, 5% PAGE at 4 C; flow cytometry in the same buffer
[1] = test system: T1, VEGF165 (soluble) (human), P15692-4; assay: F-EMSA; conditions: 1 mM Mg2+, 10 mM HEPES pH 7.9, 125 mM NaCl, 25 mM KCl, 1 mM MgCl2, F-EMSA at room temperature for 2 h, 5% PAGE at 4 C, flow cytometry in the same buffer
T1 sequence: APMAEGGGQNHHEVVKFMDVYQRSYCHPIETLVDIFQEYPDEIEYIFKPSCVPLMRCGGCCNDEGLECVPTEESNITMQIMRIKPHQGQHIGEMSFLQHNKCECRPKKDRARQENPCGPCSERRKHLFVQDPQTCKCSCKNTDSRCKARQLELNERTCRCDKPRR

Sequence: CAGAGCAGGGCGCCGTGTCGCATAGTGTTGTCACTCCCCTGGAGGTCCATGCGAAATATG [hPAap1]
- Kd (PDGF-A (human)): 4000 nM

Sequence: AAAGCCCACTGCATAGAGGCCGCTCAACATGCGAGCCGGT [hVap2_T2160]
- Kd ([1]; same value is also printed for SL12): 107 nM

Sequence: TAGCCCACTGCATAGAGGTAGCCACGTATGTGGGTGTTACCCATTCGTAGCTACCGGTGA [hVap1 full-length (100 nt)]
- Kd [1]: 1.4 nM
